Reference: US20210388087A1 (Chugai, published 2021)

T1: Human CD3eg linker (human)
T1 construct: Single chain: epsilon and gamma subunits of human CD3 joined by a 29-mer linker, Flag-tag at the C-terminus; also called recombinant human CD3
T1 chain: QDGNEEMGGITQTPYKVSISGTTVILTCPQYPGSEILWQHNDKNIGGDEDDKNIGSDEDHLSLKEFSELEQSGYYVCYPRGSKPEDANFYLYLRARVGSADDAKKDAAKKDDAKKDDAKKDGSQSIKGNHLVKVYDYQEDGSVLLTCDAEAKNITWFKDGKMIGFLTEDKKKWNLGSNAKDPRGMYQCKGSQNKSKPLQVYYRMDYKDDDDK


Biological target: T1, Human CD3eg linker
Experiment: Biacore SPR, vs template H183/L072

| fold change of affinity [fold] | Binder |
| --- | --- |
| 0.9 | H183/L072 VH A54T (antibody, name in Kabat numbering, V domains shown) VH: QVQLVESGGGLVQPGRSLRLSCAASGFTFSNAWMHWVRQAPGKGLEWVAQIKDKGNTYAAYYAPSVKGRFTISRDDSKNSIYLQMNSLKTEDTAVYYCHYVHYASASTVLPAFGVDAWGQGTTVTVSS VL: DIVMTQSPLSLPVTPGEPASISCQASQELVHMNRNTYLHWYQQKPGQAPRLLIYKVSNRFPGVPDRFSGSGSGTDFTLKISRVEAEDVGVYYCAQGTSVPFTFGQGTKLEIK |
| 1 | H183/L072 VH A56M (antibody, name in Kabat numbering, V domains shown) VH: QVQLVESGGGLVQPGRSLRLSCAASGFTFSNAWMHWVRQAPGKGLEWVAQIKDKGNAYMAYYAPSVKGRFTISRDDSKNSIYLQMNSLKTEDTAVYYCHYVHYASASTVLPAFGVDAWGQGTTVTVSS VL: DIVMTQSPLSLPVTPGEPASISCQASQELVHMNRNTYLHWYQQKPGQAPRLLIYKVSNRFPGVPDRFSGSGSGTDFTLKISRVEAEDVGVYYCAQGTSVPFTFGQGTKLEIK |
| 0.7 | H183/L072 VH A54V (antibody, name in Kabat numbering, V domains shown) VH: QVQLVESGGGLVQPGRSLRLSCAASGFTFSNAWMHWVRQAPGKGLEWVAQIKDKGNVYAAYYAPSVKGRFTISRDDSKNSIYLQMNSLKTEDTAVYYCHYVHYASASTVLPAFGVDAWGQGTTVTVSS VL: DIVMTQSPLSLPVTPGEPASISCQASQELVHMNRNTYLHWYQQKPGQAPRLLIYKVSNRFPGVPDRFSGSGSGTDFTLKISRVEAEDVGVYYCAQGTSVPFTFGQGTKLEIK |
| 0.7 | H183/L072 VH A56G (antibody, name in Kabat numbering, V domains shown) VH: QVQLVESGGGLVQPGRSLRLSCAASGFTFSNAWMHWVRQAPGKGLEWVAQIKDKGNAYGAYYAPSVKGRFTISRDDSKNSIYLQMNSLKTEDTAVYYCHYVHYASASTVLPAFGVDAWGQGTTVTVSS VL: DIVMTQSPLSLPVTPGEPASISCQASQELVHMNRNTYLHWYQQKPGQAPRLLIYKVSNRFPGVPDRFSGSGSGTDFTLKISRVEAEDVGVYYCAQGTSVPFTFGQGTKLEIK |
| 0.6 | H183/L072 VH A56E (antibody, name in Kabat numbering, V domains shown) VH: QVQLVESGGGLVQPGRSLRLSCAASGFTFSNAWMHWVRQAPGKGLEWVAQIKDKGNAYEAYYAPSVKGRFTISRDDSKNSIYLQMNSLKTEDTAVYYCHYVHYASASTVLPAFGVDAWGQGTTVTVSS VL: DIVMTQSPLSLPVTPGEPASISCQASQELVHMNRNTYLHWYQQKPGQAPRLLIYKVSNRFPGVPDRFSGSGSGTDFTLKISRVEAEDVGVYYCAQGTSVPFTFGQGTKLEIK |
| 0.7 | H183/L072 VH A56L (antibody, name in Kabat numbering, V domains shown) VH: QVQLVESGGGLVQPGRSLRLSCAASGFTFSNAWMHWVRQAPGKGLEWVAQIKDKGNAYLAYYAPSVKGRFTISRDDSKNSIYLQMNSLKTEDTAVYYCHYVHYASASTVLPAFGVDAWGQGTTVTVSS VL: DIVMTQSPLSLPVTPGEPASISCQASQELVHMNRNTYLHWYQQKPGQAPRLLIYKVSNRFPGVPDRFSGSGSGTDFTLKISRVEAEDVGVYYCAQGTSVPFTFGQGTKLEIK |
| 1 | H183/L072 VH A54Y (antibody, name in Kabat numbering, V domains shown) VH: QVQLVESGGGLVQPGRSLRLSCAASGFTFSNAWMHWVRQAPGKGLEWVAQIKDKGNYYAAYYAPSVKGRFTISRDDSKNSIYLQMNSLKTEDTAVYYCHYVHYASASTVLPAFGVDAWGQGTTVTVSS VL: DIVMTQSPLSLPVTPGEPASISCQASQELVHMNRNTYLHWYQQKPGQAPRLLIYKVSNRFPGVPDRFSGSGSGTDFTLKISRVEAEDVGVYYCAQGTSVPFTFGQGTKLEIK |
| 0.3 | H183/L072 VH A56P (antibody, name in Kabat numbering, V domains shown) VH: QVQLVESGGGLVQPGRSLRLSCAASGFTFSNAWMHWVRQAPGKGLEWVAQIKDKGNAYPAYYAPSVKGRFTISRDDSKNSIYLQMNSLKTEDTAVYYCHYVHYASASTVLPAFGVDAWGQGTTVTVSS VL: DIVMTQSPLSLPVTPGEPASISCQASQELVHMNRNTYLHWYQQKPGQAPRLLIYKVSNRFPGVPDRFSGSGSGTDFTLKISRVEAEDVGVYYCAQGTSVPFTFGQGTKLEIK |
| 0.6 | H183/L072 VH A56F (antibody, name in Kabat numbering, V domains shown) VH: QVQLVESGGGLVQPGRSLRLSCAASGFTFSNAWMHWVRQAPGKGLEWVAQIKDKGNAYFAYYAPSVKGRFTISRDDSKNSIYLQMNSLKTEDTAVYYCHYVHYASASTVLPAFGVDAWGQGTTVTVSS VL: DIVMTQSPLSLPVTPGEPASISCQASQELVHMNRNTYLHWYQQKPGQAPRLLIYKVSNRFPGVPDRFSGSGSGTDFTLKISRVEAEDVGVYYCAQGTSVPFTFGQGTKLEIK |
| 0.5 | H183/L072 VH A56D (antibody, name in Kabat numbering, V domains shown) VH: QVQLVESGGGLVQPGRSLRLSCAASGFTFSNAWMHWVRQAPGKGLEWVAQIKDKGNAYDAYYAPSVKGRFTISRDDSKNSIYLQMNSLKTEDTAVYYCHYVHYASASTVLPAFGVDAWGQGTTVTVSS VL: DIVMTQSPLSLPVTPGEPASISCQASQELVHMNRNTYLHWYQQKPGQAPRLLIYKVSNRFPGVPDRFSGSGSGTDFTLKISRVEAEDVGVYYCAQGTSVPFTFGQGTKLEIK |
| 1.3 | H183/L072 VH A56K (antibody, name in Kabat numbering, V domains shown) VH: QVQLVESGGGLVQPGRSLRLSCAASGFTFSNAWMHWVRQAPGKGLEWVAQIKDKGNAYKAYYAPSVKGRFTISRDDSKNSIYLQMNSLKTEDTAVYYCHYVHYASASTVLPAFGVDAWGQGTTVTVSS VL: DIVMTQSPLSLPVTPGEPASISCQASQELVHMNRNTYLHWYQQKPGQAPRLLIYKVSNRFPGVPDRFSGSGSGTDFTLKISRVEAEDVGVYYCAQGTSVPFTFGQGTKLEIK |
| 0.9 | H183/L072 VH A56N (antibody, name in Kabat numbering, V domains shown) VH: QVQLVESGGGLVQPGRSLRLSCAASGFTFSNAWMHWVRQAPGKGLEWVAQIKDKGNAYNAYYAPSVKGRFTISRDDSKNSIYLQMNSLKTEDTAVYYCHYVHYASASTVLPAFGVDAWGQGTTVTVSS VL: DIVMTQSPLSLPVTPGEPASISCQASQELVHMNRNTYLHWYQQKPGQAPRLLIYKVSNRFPGVPDRFSGSGSGTDFTLKISRVEAEDVGVYYCAQGTSVPFTFGQGTKLEIK |
| 0.9 | H183/L072 VH A56H (antibody, name in Kabat numbering, V domains shown) VH: QVQLVESGGGLVQPGRSLRLSCAASGFTFSNAWMHWVRQAPGKGLEWVAQIKDKGNAYHAYYAPSVKGRFTISRDDSKNSIYLQMNSLKTEDTAVYYCHYVHYASASTVLPAFGVDAWGQGTTVTVSS VL: DIVMTQSPLSLPVTPGEPASISCQASQELVHMNRNTYLHWYQQKPGQAPRLLIYKVSNRFPGVPDRFSGSGSGTDFTLKISRVEAEDVGVYYCAQGTSVPFTFGQGTKLEIK |
| 1.1 | H183/L072 VH A54W (antibody, name in Kabat numbering, V domains shown) VH: QVQLVESGGGLVQPGRSLRLSCAASGFTFSNAWMHWVRQAPGKGLEWVAQIKDKGNWYAAYYAPSVKGRFTISRDDSKNSIYLQMNSLKTEDTAVYYCHYVHYASASTVLPAFGVDAWGQGTTVTVSS VL: DIVMTQSPLSLPVTPGEPASISCQASQELVHMNRNTYLHWYQQKPGQAPRLLIYKVSNRFPGVPDRFSGSGSGTDFTLKISRVEAEDVGVYYCAQGTSVPFTFGQGTKLEIK |
| 0.6 | H183/L072 VH A56I (antibody, name in Kabat numbering, V domains shown) VH: QVQLVESGGGLVQPGRSLRLSCAASGFTFSNAWMHWVRQAPGKGLEWVAQIKDKGNAYIAYYAPSVKGRFTISRDDSKNSIYLQMNSLKTEDTAVYYCHYVHYASASTVLPAFGVDAWGQGTTVTVSS VL: DIVMTQSPLSLPVTPGEPASISCQASQELVHMNRNTYLHWYQQKPGQAPRLLIYKVSNRFPGVPDRFSGSGSGTDFTLKISRVEAEDVGVYYCAQGTSVPFTFGQGTKLEIK |
